Usually Kd stands for the free concentration of one partner at which half of the binding sites on the other are occupied at equilibrium, for simple one-to-one binding. What is called koff is the first-order rate constant of dissociation. For orientation: kon means a measure of how fast the partners come together. A high value points to faster complex formation.

First the molecules themselves.
B1: llama heavy chain antibody fragment VHH D7, wild type (VHH)
VHH: AVQLVESGGGLAQAGGSLRLSCTVSGRTSSSHDMGWFRQAPGKEREFVAAISWSGGTTNYADSVKGRFAISKDNAKNAVSLQMNSLKPEDTAVYYCAAKWRPLRYSDNPSNSDYNYWGQGTQVTVSS
notes: PDB 2xa3 holds D7 with the framework changes Val5Gln, Ala11Val, Ala61Val, Ala68Asp and Ser79Tyr against wild type D7
B2: VHH D7 Lys95→Ser (VHH)
VHH: B1 VHH with K99S
notes: PDB 2xa3 holds D7 with five framework changes) with the stated CDR3 mutation; Chothia numbering
B3: VHH D7 Asp100C→Ala (VHH)
VHH: B1 VHH with D107A
notes: PDB 2xa3 holds D7 with five framework changes) with the stated CDR3 mutation; Chothia numbering (100C is an insertion position)
B4: VHH D7 Trp96→Ala (VHH)
VHH: B1 VHH with W100A
notes: as for B2
B5: VHH D7 Leu99→Ala (VHH)
VHH: B1 VHH with L103A
notes: as for B2
B6: VHH D7 double mutant Asn101→Tyr/Tyr102→Asp (VHH)
VHH: B1 VHH with N115Y, Y116D
notes: PDB 2xa3 holds D7 with five framework changes) with the stated CDR3 mutations; Chothia numbering; also called double mutant Asn^101Tyr^102
B7: VHH D7 Tyr100A→Ala (VHH)
VHH: B1 VHH with Y105A
notes: PDB 2xa3 holds D7 with five framework changes) with the stated CDR3 mutation; Chothia numbering (100A is an insertion position)
B8: VHH D7 Asn100D→Ala (VHH)
VHH: B1 VHH with N108A
notes: PDB 2xa3 holds D7 with five framework changes) with the stated CDR3 mutation; Chothia numbering (100D is an insertion position)

Substitutions are numbered along the chain they refer to.

In one test the target is T1, HIV-1 envelope glycoprotein gp120 (IIIB) (HIV-1 IIIB (HXB2 clone entry), UniProt P04578). The test can be described thus: cell-based or functional assay.
Details: not given
Turning to B1, the “IC50 of neutralisation of HIV-1 IIIB in TZM-bl cells, Average” value (“IC50 of neutralisation … Average” for short) was determined as 0.054 µg/mL; the “IC50 of neutralisation of HIV-1 IIIB in TZM-bl cells, Exp1” value (shortened to “IC50 of neutralisation … Exp1”) came to 0.066 µg/mL; the “IC50 of neutralisation of HIV-1 IIIB in TZM-bl cells, Exp2” value (“IC50 of neutralisation … Exp2” for short) came to 0.041 µg/mL.
For B2, in that order: 3 µg/mL, 3.43 µg/mL and 2.64 µg/mL.
Turning to B3, the “IC50 of neutralisation … Average” value came to 0.027 µg/mL; the “IC50 of neutralisation … Exp1” value worked out at 0.4 µg/mL; the “IC50 of neutralisation … Exp2” value worked out at 0.014 µg/mL.
On to B4, for which the “IC50 of neutralisation … Average” value amounted to 2.6 µg/mL; the “IC50 of neutralisation … Exp1” value worked out at 2.72 µg/mL; the “IC50 of neutralisation … Exp2” value came out at 2.43 µg/mL.
For B5, in that order: 0.69 µg/mL, 0.817 µg/mL and 0.56 µg/mL.
As for B6, the “IC50 of neutralisation … Average” value was found to be 0.011 µg/mL; the “IC50 of neutralisation … Exp1” value was found to be 0.017 µg/mL; the “IC50 of neutralisation … Exp2” value was found to be 0.005 µg/mL.
On to B7, for which the “IC50 of neutralisation … Average” value was 0.023 µg/mL; the “IC50 of neutralisation … Exp1” value worked out at 0.028 µg/mL; the “IC50 of neutralisation … Exp2” value is 0.018 µg/mL.

The target of a further test is T1, HIV-1 envelope glycoprotein gp120 (IIIB). Description: SPR; gp120 (IIIB) coupled covalently to a CM5 chip; D7 or D7 mutants at 25 and 100 nM flowed over; Biacore X; 10 mM HEPES pH 7.5, 100 mM NaCl, 0.05% P20; 30 µl/min; association 3 min, dissociation 15 min; simultaneous fit of association and dissociation. The following applies: both partners purified. On the technique in general: Surface plasmon resonance follows binding to a sensor surface in real time, without labels.
The molecule B1 yielded a Kd of 2.91 ± 0.87 nM, a koff of 0.000551 s⁻¹ and an on-rate constant (kon) of 155000 M⁻¹ s⁻¹.
On to B8, for which the Kd came out at 0.51 ± 0.02 nM, the koff was found to be 0.000128 s⁻¹ and the kon was determined as 252000 M⁻¹ s⁻¹.
For B2 the same measures were 377 ± 276 nM, 0.00236 s⁻¹ and 13000 M⁻¹ s⁻¹.
For B3 the same measures were 0.84 ± 0.12 nM, 0.000199 s⁻¹ and 236000 M⁻¹ s⁻¹.
For B4 the same measures were 27.9 ± 20.5 nM, 0.00313 s⁻¹ and 146000 M⁻¹ s⁻¹.
B5 returned a Kd of 69.9 ± 14.2 nM, a koff of 0.005 s⁻¹ and a kon of 14000 M⁻¹ s⁻¹.
For B6, in that order: 0.18 ± 0.15 nM, 3.3e-05 s⁻¹ and 187000 M⁻¹ s⁻¹.
Regarding B7, the affinity, expressed as Kd, was 1.55 ± 0.07 nM; the koff is 0.000359 s⁻¹; the association rate constant (kon) was 233000 M⁻¹ s⁻¹.

For the origin of these results see paper PMC2864739, “Crystal Structure of the Neutralizing Llama VHH D7 and Its Mode of HIV-1 gp120 Interaction” (PLoS ONE, 2010).
